First the molecules themselves.
B1: POU domain, class 2, transcription factor 2, residues 200 to 269; numbered along this chain, P09086 (parent)
chain: LEELEQFARTFKQRRIKLGFTQGDVGLAMGKLYGNDFSQTTISRFEALNLSFKNMCKLKPLLEKWLNDAE

± gives the uncertainty stated by the source.

This data set covers variants of B1. Put plainly: abundance fitness (aPCA) (normalised: wild type 0, dead -1); higher = more abundant; growth selection in yeast, the domain comes from the species named. The conditions noted are these: Homo sapiens.
For LEELEQFARTFKQRRIKLGFTQGDVGLAMGKLYGNDFSQTWISRFEALNLSFKNMCKLKPLLEKWLNDAE [T41W], the abundance fitness was -0.014 ± 0.059.
For LEELEQFARTFKQRRIKLGFTQGDVGLAMGKLYGNDFSQTVISRFEALNLSFKNMCKLKPLLEKWLNDAE [T41V], the abundance fitness came out at 0.024 ± 0.076.
In the case of LEELEQFARTFKQRRIKLGFTQGDVGLAMGKLYGNDFSQTDISRFEALNLSFKNMCKLKPLLEKWLNDAE [T41D] it was 0.029 ± 0.14.
In the case of LEELEQFARTFKQRRIKLGFTQGDVGLAMGKLYGNDFSQTLISRFEALNLSFKNMCKLKPLLEKWLNDAE [T41L], the abundance fitness was -0.041 ± 0.038.
In the case of LEELEQFARTFKQRRIKLGFTQGDVGLAMGKLYGNDFSQTQISRFEALNLSFKNMCKLKPLLEKWLNDAE [T41Q] it was -0.061 ± 0.047.
As for LEELEQFARTFKQRRIKLGFTQGDVGLAMGKLYGNDFSQTYISRFEALNLSFKNMCKLKPLLEKWLNDAE [T41Y], the abundance fitness is -0.078 ± 0.13.
As for LEELEQFARTFKQRRIKLGFTQGDVGLAMGKLYGNDFSQTRISRFEALNLSFKNMCKLKPLLEKWLNDAE [T41R], the abundance fitness was -0.179 ± 0.036.
In the case of LEELEQFARTFKQRRIKLGFTQGDVGLAMGKLYGNDFSQTSISRFEALNLSFKNMCKLKPLLEKWLNDAE [T41S] it was -0.059 ± 0.058; in that of LEELEQFARTFKQRRIKLGFTQGDVGLAMGKLYGNDFSQTCISRFEALNLSFKNMCKLKPLLEKWLNDAE [T41C], 0.094 ± 0.097; in that of LEELEQFARTFKQRRIKLGFTQGDVGLAMGKLYGNDFSQTAISRFEALNLSFKNMCKLKPLLEKWLNDAE [T41A], -0.048 ± 0.064.
On to LEELEQFARTFKQRRIKLGFTQGDVGLAMGKLYGNDFSQTFISRFEALNLSFKNMCKLKPLLEKWLNDAE [T41F], for which the abundance fitness was -0.114 ± 0.097.
For the variant LEELEQFARTFKQRRIKLGFTQGDVGLAMGKLYGNDFSQTIISRFEALNLSFKNMCKLKPLLEKWLNDAE [T41I], the abundance fitness is -0.108 ± 0.12.
With LEELEQFARTFKQRRIKLGFTQGDVGLAMGKLYGNDFSQTGISRFEALNLSFKNMCKLKPLLEKWLNDAE [T41G], the abundance fitness was -0.193 ± 0.039.
In the case of LEELEQFARTFKQRRIKLGFTQGDVGLAMGKLYGNDFSQTMISRFEALNLSFKNMCKLKPLLEKWLNDAE [T41M] it was 0.04 ± 0.068.
Consider LEELEQFARTFKQRRIKLGFTQGDVGLAMGKLYGNDFSQTEISRFEALNLSFKNMCKLKPLLEKWLNDAE [T41E], for which the abundance fitness was -0.029 ± 0.093.
In the case of LEELEQFARTFKQRRIKLGFTQGDVGLAMGKLYGNDFSQTHISRFEALNLSFKNMCKLKPLLEKWLNDAE [T41H] it was 0.023 ± 0.073; in that of LEELEQFARTFKQRRIKLGFTQGDVGLAMGKLYGNDSSQTTISRFEALNLSFKNMCKLKPLLEKWLNDAE [F37S], -0.24 ± 0.049.
In the case of LEELEQFARTFKQRRIKLGFTQGDVGLAMGKLYGNDWSQTTISRFEALNLSFKNMCKLKPLLEKWLNDAE [F37W] it was -0.012 ± 0.049; in that of LEELEQFARTFKQRRIKLGFTQGDVGLAMGKLYGNDTSQTTISRFEALNLSFKNMCKLKPLLEKWLNDAE [F37T], -0.175 ± 0.065.
In the case of LEELEQFARTFKQRRIKLGFTQGDVGLAMGKLYGNDRSQTTISRFEALNLSFKNMCKLKPLLEKWLNDAE [F37R] it was -0.39 ± 0.044.
As to LEELEQFARTFKQRRIKLGFTQGDVGLAMGKLYGNDVSQTTISRFEALNLSFKNMCKLKPLLEKWLNDAE [F37V], the abundance fitness is -0.065 ± 0.041.
The value for LEELEQFARTFKQRRIKLGFTQGDVGLAMGKLYGNDYSQTTISRFEALNLSFKNMCKLKPLLEKWLNDAE [F37Y] was -0.048 ± 0.092; that for LEELEQFARTFKQRRIKLGFTQGDVGLAMGKLYGNDQSQTTISRFEALNLSFKNMCKLKPLLEKWLNDAE [F37Q] was -0.061 ± 0.073; that for LEELEQFARTFKQRRIKLGFTQGDVGLAMGKLYGNDFVQTTISRFEALNLSFKNMCKLKPLLEKWLNDAE [S38V] was -0.081 ± 0.041.
Regarding LEELEQFARTFKQRRIKLGFTQGDVGLAMGKLYGNDFCQTTISRFEALNLSFKNMCKLKPLLEKWLNDAE [S38C], the abundance fitness was -0.023 ± 0.059.
The value for LEELEQFARTFKQRRIKLGFTQGDVGLAMGKLYGNDFDQTTISRFEALNLSFKNMCKLKPLLEKWLNDAE [S38D] was 0.241 ± 0.28; that for LEELEQFARTFKQRRIKLGFTQGDVGLAMGKLYGNDFRQTTISRFEALNLSFKNMCKLKPLLEKWLNDAE [S38R] was -0.037 ± 0.023.
For the variant LEELEQFARTFKQRRIKLGFTQGDVGLAMGKLYGNDFIQTTISRFEALNLSFKNMCKLKPLLEKWLNDAE [S38I], the abundance fitness was -0.107 ± 0.19.
The value for LEELEQFARTFKQRRIKLGFTQGDVGLAMGKLYGNDFAQTTISRFEALNLSFKNMCKLKPLLEKWLNDAE [S38A] was -0.014 ± 0.053; that for LEELEQFARTFKQRRIKLGFTQGDVGLAMGKLYGNDFGQTTISRFEALNLSFKNMCKLKPLLEKWLNDAE [S38G] was 0.025 ± 0.034; that for LEELEQFARTFKQRRIKLGFTQGDVGLAMGKLYGNDFMQTTISRFEALNLSFKNMCKLKPLLEKWLNDAE [S38M] was -0.085 ± 0.051.
Turning to LEELEQFARTFKQRRIKLGFTQGDVGLAMGKLYGNDFWQTTISRFEALNLSFKNMCKLKPLLEKWLNDAE [S38W], the abundance fitness is -0.157 ± 0.04.
The value for LEELEQFARTFKQRRIKLGFTQGDVGLAMGKLYGNDFNQTTISRFEALNLSFKNMCKLKPLLEKWLNDAE [S38N] was 0.044 ± 0.073; that for LEELEQFARTFKQRRIKLGFTQGDVGLAMGKLYGNDFTQTTISRFEALNLSFKNMCKLKPLLEKWLNDAE [S38T] was -0.004 ± 0.05; that for LEELEQFARTFKQRRIKLGFTQGDVGLAMGKLYGNDFQQTTISRFEALNLSFKNMCKLKPLLEKWLNDAE [S38Q] was -0.054 ± 0.068.
The value for LEELEQFARTFKQRRIKLGFTQGDVGLAMGKLYGNDFEQTTISRFEALNLSFKNMCKLKPLLEKWLNDAE [S38E] was -0.015 ± 0.053; that for LEELEQFARTFKQRRIKLGFTQGDVGLAMGKLYGNDFYQTTISRFEALNLSFKNMCKLKPLLEKWLNDAE [S38Y] was -0.234 ± 0.12; that for LEELEQFARTFKQRRIKLGFTQGDVGLAMGKLYGNDFKQTTISRFEALNLSFKNMCKLKPLLEKWLNDAE [S38K] was -0.055 ± 0.061.
In the case of LEELEQFARTFKQRRIKLGFTQGDVGLAMGKLYGNDFPQTTISRFEALNLSFKNMCKLKPLLEKWLNDAE [S38P] it was -0.065 ± 0.044.

The values are drawn from the Human Domainome abundance scans (Beltran et al. 2025).
